# Test results published in patent US20140271457A1 (AbbVie / Abbott, published 2014).
# Molecular target: Recombinant Human TNF-α/TNFSF1A (human, UniProt P01375 77-233)
# Test: cell-based or functional assay
# Chain of Recombinant Human TNF-α/TNFSF1A (P01375 77-233 limits assumed): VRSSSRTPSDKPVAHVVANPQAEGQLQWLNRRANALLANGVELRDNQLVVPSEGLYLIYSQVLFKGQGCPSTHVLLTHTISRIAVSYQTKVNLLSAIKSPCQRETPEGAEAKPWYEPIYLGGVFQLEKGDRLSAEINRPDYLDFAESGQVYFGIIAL
Binder,C-Terminal VD huTNFα Neutralization Assay IC50,N-Terminal VD huTNFα Neutralization Assay IC50
"DVD2799 (bispecific antibody, IgG1) VH: EVQLVQSGAEVKKPGASVKVSCKASGYTFTKYWLGWVRQAPGQGLEWMGDIYPGYDYTHYNEKFKDRVTLTTDTSTSTAYMELRSLRSDDTAVYYCARSDGSSTYWGQGTLVTVSSASTKGPEVQLVQSGAEVKKPGASVKVSCKASGYTFANYGIIWVRQAPGQGLEWMGWINTYTGKPTYAQKFQGRVTMTTDTSTSTAYMELSSLRSEDTAVYYCARKLFTTMDVTDNAMDYWGQGTTVTVSS VL: DVLMTQTPLSLPVTPGEPASISCTSSQNIVHSNGNTYLEWYLQKPGQSPQLLIYKVSNRFSGVPDRFSGSGSGTDFTLKISRVEAEDVGVYYCFQVSHVPYTFGGGTKVEIKRTVAAPDIQMTQSPSSLSASVGDRVTITCRASQDISQYLNWYQQKPGKAPKLLIYYTSRLQSGVPSRFSGSGSGTDFTLTISSLQPEDFATYFCQQGNTWPPTFGQGTKLEIKR",3080 pM,
"DVD2798 (bispecific antibody, IgG1) VH: EVQLVQSGAEVKKPGASVKVSCKASGYTFTKYWLGWVRQAPGQGLEWMGDIYPGYDYTHYNEKFKDRVTLTTDTSTSTAYMELRSLRSDDTAVYYCARSDGSSTYWGQGTLVTVSSGGGGSGGGGSEVQLVQSGAEVKKPGASVKVSCKASGYTFANYGIIWVRQAPGQGLEWMGWINTYTGKPTYAQKFQGRVTMTTDTSTSTAYMELSSLRSEDTAVYYCARKLFTTMDVTDNAMDYWGQGTTVTVSS VL: DVLMTQTPLSLPVTPGEPASISCTSSQNIVHSNGNTYLEWYLQKPGQSPQLLIYKVSNRFSGVPDRFSGSGSGTDFTLKISRVEAEDVGVYYCFQVSHVPYTFGGGTKVEIKRGGSGGGGSGDIQMTQSPSSLSASVGDRVTITCRASQDISQYLNWYQQKPGKAPKLLIYYTSRLQSGVPSRFSGSGSGTDFTLTISSLQPEDFATYFCQQGNTWPPTFGQGTKLEIKR",381 pM,
"DVD2752 (bispecific antibody, IgG1) VH: EVQLVQSGAEVKKPGASVKVSCKASGYTFTKYWLGWVRQAPGQGLEWMGDIYPGYDYTHYNEKFKDRVTLTTDTSTSTAYMELRSLRSDDTAVYYCARSDGSSTYWGQGTLVTVSSASTKGPSVFPLAPEVQLVESGGGLVQPGGSLRLSCAASGFTFSNYGVEWVRQAPGKGLEWVSGIWADGSTHYADTVKSRFTISRDNSKNTLYLQMNSLRAEDTAVYYCAREWQHGPVAYWGQGTLVTVSS VL: DVLMTQTPLSLPVTPGEPASISCTSSQNIVHSNGNTYLEWYLQKPGQSPQLLIYKVSNRFSGVPDRFSGSGSGTDFTLKISRVEAEDVGVYYCFQVSHVPYTFGGGTKVEIKRTVAAPDIQMTQSPSSLSASVGDRVTITCKASQLVSSAVAWYQQKPGKAPKLLIYWASTLHTGVPSRFSGSGSGTDFTLTISSLQPEDFATYYCQQHYRTPFTFGQGTKLEIKR",384 pM,
"DVD2794 (bispecific antibody, IgG1) VH: EVQLVQSGAEVKKPGASVKVSCKASGYTFANYGIIWVRQAPGQGLEWMGWINTYTGKPTYAQKFQGRVTMTTDTSTSTAYMELSSLRSEDTAVYYCARKLFTTMDVTDNAMDYWGQGTTVTVSSASTKGPEVQLVQSGAEVKKPGASVKVSCKASGYTFTKYWLGWVRQAPGQGLEWMGDIYPGYDYTHYNEKFKDRVTLTTDTSTSTAYMELRSLRSDDTAVYYCARSDGSSTYWGQGTLVTVSS VL: DIQMTQSPSSLSASVGDRVTITCRASQDISQYLNWYQQKPGKAPKLLIYYTSRLQSGVPSRFSGSGSGTDFTLTISSLQPEDFATYFCQQGNTWPPTFGQGTKLEIKRTVAAPDVLMTQTPLSLPVTPGEPASISCTSSQNIVHSNGNTYLEWYLQKPGQSPQLLIYKVSNRFSGVPDRFSGSGSGTDFTLKISRVEAEDVGVYYCFQVSHVPYTFGGGTKVEIKR",,3 pM
"DVD2797 (bispecific antibody, IgG1) VH: EVQLVQSGAEVKKPGASVKVSCKASGYTFANYGIIWVRQAPGQGLEWMGWINTYTGKPTYAQKFQGRVTMTTDTSTSTAYMELSSLRSEDTAVYYCARKLFTTMDVTDNAMDYWGQGTTVTVSSASTKGPSVFPLAPEVQLVQSGAEVKKPGASVKVSCKASGYTFTKYWLGWVRQAPGQGLEWMGDIYPGYDYTHYNEKFKDRVTLTTDTSTSTAYMELRSLRSDDTAVYYCARSDGSSTYWGQGTLVTVSS VL: DIQMTQSPSSLSASVGDRVTITCRASQDISQYLNWYQQKPGKAPKLLIYYTSRLQSGVPSRFSGSGSGTDFTLTISSLQPEDFATYFCQQGNTWPPTFGQGTKLEIKRTVAAPDVLMTQTPLSLPVTPGEPASISCTSSQNIVHSNGNTYLEWYLQKPGQSPQLLIYKVSNRFSGVPDRFSGSGSGTDFTLKISRVEAEDVGVYYCFQVSHVPYTFGGGTKVEIKR",,2 pM
"DVD2796 (bispecific antibody, IgG1) VH: EVQLVQSGAEVKKPGASVKVSCKASGYTFANYGIIWVRQAPGQGLEWMGWINTYTGKPTYAQKFQGRVTMTTDTSTSTAYMELSSLRSEDTAVYYCARKLFTTMDVTDNAMDYWGQGTTVTVSSASTKGPEVQLVQSGAEVKKPGASVKVSCKASGYTFTKYWLGWVRQAPGQGLEWMGDIYPGYDYTHYNEKFKDRVTLTTDTSTSTAYMELRSLRSDDTAVYYCARSDGSSTYWGQGTLVTVSS VL: DIQMTQSPSSLSASVGDRVTITCRASQDISQYLNWYQQKPGKAPKLLIYYTSRLQSGVPSRFSGSGSGTDFTLTISSLQPEDFATYFCQQGNTWPPTFGQGTKLEIKRTVAAPSVFIFPPDVLMTQTPLSLPVTPGEPASISCTSSQNIVHSNGNTYLEWYLQKPGQSPQLLIYKVSNRFSGVPDRFSGSGSGTDFTLKISRVEAEDVGVYYCFQVSHVPYTFGGGTKVEIKR",,10 pM
"DVD2748 (bispecific antibody, IgG1) VH: EVQLVQSGAEVKKPGASVKVSCKASGYTFTKYWLGWVRQAPGQGLEWMGDIYPGYDYTHYNEKFKDRVTLTTDTSTSTAYMELRSLRSDDTAVYYCARSDGSSTYWGQGTLVTVSSGGGGSGGGGSEVQLVESGGGLVQPGGSLRLSCAASGFTFSNYGVEWVRQAPGKGLEWVSGIWADGSTHYADTVKSRFTISRDNSKNTLYLQMNSLRAEDTAVYYCAREWQHGPVAYWGQGTLVTVSS VL: DVLMTQTPLSLPVTPGEPASISCTSSQNIVHSNGNTYLEWYLQKPGQSPQLLIYKVSNRFSGVPDRFSGSGSGTDFTLKISRVEAEDVGVYYCFQVSHVPYTFGGGTKVEIKRGGSGGGGSGDIQMTQSPSSLSASVGDRVTITCKASQLVSSAVAWYQQKPGKAPKLLIYWASTLHTGVPSRFSGSGSGTDFTLTISSLQPEDFATYYCQQHYRTPFTFGQGTKLEIKR",2880 pM,
"DVD2744 (bispecific antibody, IgG1) VH: EVQLVESGGGLVQPGGSLRLSCAASGFTFSNYGVEWVRQAPGKGLEWVSGIWADGSTHYADTVKSRFTISRDNSKNTLYLQMNSLRAEDTAVYYCAREWQHGPVAYWGQGTLVTVSSASTKGPEVQLVQSGAEVKKPGASVKVSCKASGYTFTKYWLGWVRQAPGQGLEWMGDIYPGYDYTHYNEKFKDRVTLTTDTSTSTAYMELRSLRSDDTAVYYCARSDGSSTYWGQGTLVTVSS VL: DIQMTQSPSSLSASVGDRVTITCKASQLVSSAVAWYQQKPGKAPKLLIYWASTLHTGVPSRFSGSGSGTDFTLTISSLQPEDFATYYCQQHYRTPFTFGQGTKLEIKRTVAAPDVLMTQTPLSLPVTPGEPASISCTSSQNIVHSNGNTYLEWYLQKPGQSPQLLIYKVSNRFSGVPDRFSGSGSGTDFTLKISRVEAEDVGVYYCFQVSHVPYTFGGGTKVEIKR",,3 pM
"DVD2747 (bispecific antibody, IgG1) VH: EVQLVESGGGLVQPGGSLRLSCAASGFTFSNYGVEWVRQAPGKGLEWVSGIWADGSTHYADTVKSRFTISRDNSKNTLYLQMNSLRAEDTAVYYCAREWQHGPVAYWGQGTLVTVSSASTKGPSVFPLAPEVQLVQSGAEVKKPGASVKVSCKASGYTFTKYWLGWVRQAPGQGLEWMGDIYPGYDYTHYNEKFKDRVTLTTDTSTSTAYMELRSLRSDDTAVYYCARSDGSSTYWGQGTLVTVSS VL: DIQMTQSPSSLSASVGDRVTITCKASQLVSSAVAWYQQKPGKAPKLLIYWASTLHTGVPSRFSGSGSGTDFTLTISSLQPEDFATYYCQQHYRTPFTFGQGTKLEIKRTVAAPDVLMTQTPLSLPVTPGEPASISCTSSQNIVHSNGNTYLEWYLQKPGQSPQLLIYKVSNRFSGVPDRFSGSGSGTDFTLKISRVEAEDVGVYYCFQVSHVPYTFGGGTKVEIKR",,3 pM
"DVD2746 (bispecific antibody, IgG1) VH: EVQLVESGGGLVQPGGSLRLSCAASGFTFSNYGVEWVRQAPGKGLEWVSGIWADGSTHYADTVKSRFTISRDNSKNTLYLQMNSLRAEDTAVYYCAREWQHGPVAYWGQGTLVTVSSASTKGPEVQLVQSGAEVKKPGASVKVSCKASGYTFTKYWLGWVRQAPGQGLEWMGDIYPGYDYTHYNEKFKDRVTLTTDTSTSTAYMELRSLRSDDTAVYYCARSDGSSTYWGQGTLVTVSS VL: DIQMTQSPSSLSASVGDRVTITCKASQLVSSAVAWYQQKPGKAPKLLIYWASTLHTGVPSRFSGSGSGTDFTLTISSLQPEDFATYYCQQHYRTPFTFGQGTKLEIKRTVAAPSVFIFPPDVLMTQTPLSLPVTPGEPASISCTSSQNIVHSNGNTYLEWYLQKPGQSPQLLIYKVSNRFSGVPDRFSGSGSGTDFTLKISRVEAEDVGVYYCFQVSHVPYTFGGGTKVEIKR",,6 pM
"DVD2743 (bispecific antibody, IgG1) VH: EVQLVESGGGLVQPGGSLRLSCAASGFTFSNYGVEWVRQAPGKGLEWVSGIWADGSTHYADTVKSRFTISRDNSKNTLYLQMNSLRAEDTAVYYCAREWQHGPVAYWGQGTLVTVSSGGGGSGGGGSEVQLVQSGAEVKKPGASVKVSCKASGYTFTKYWLGWVRQAPGQGLEWMGDIYPGYDYTHYNEKFKDRVTLTTDTSTSTAYMELRSLRSDDTAVYYCARSDGSSTYWGQGTLVTVSS VL: DIQMTQSPSSLSASVGDRVTITCKASQLVSSAVAWYQQKPGKAPKLLIYWASTLHTGVPSRFSGSGSGTDFTLTISSLQPEDFATYYCQQHYRTPFTFGQGTKLEIKRGGSGGGGSGDVLMTQTPLSLPVTPGEPASISCTSSQNIVHSNGNTYLEWYLQKPGQSPQLLIYKVSNRFSGVPDRFSGSGSGTDFTLKISRVEAEDVGVYYCFQVSHVPYTFGGGTKVEIKR",,6 pM
"DVD2793 (bispecific antibody, IgG1) VH: EVQLVQSGAEVKKPGASVKVSCKASGYTFANYGIIWVRQAPGQGLEWMGWINTYTGKPTYAQKFQGRVTMTTDTSTSTAYMELSSLRSEDTAVYYCARKLFTTMDVTDNAMDYWGQGTTVTVSSGGGGSGGGGSEVQLVQSGAEVKKPGASVKVSCKASGYTFTKYWLGWVRQAPGQGLEWMGDIYPGYDYTHYNEKFKDRVTLTTDTSTSTAYMELRSLRSDDTAVYYCARSDGSSTYWGQGTLVTVSS VL: DIQMTQSPSSLSASVGDRVTITCRASQDISQYLNWYQQKPGKAPKLLIYYTSRLQSGVPSRFSGSGSGTDFTLTISSLQPEDFATYFCQQGNTWPPTFGQGTKLEIKRGGSGGGGSGDVLMTQTPLSLPVTPGEPASISCTSSQNIVHSNGNTYLEWYLQKPGQSPQLLIYKVSNRFSGVPDRFSGSGSGTDFTLKISRVEAEDVGVYYCFQVSHVPYTFGGGTKVEIKR",,6 pM
